This note sets out measurements from article PMC10478762.

One may read the stoichiometry N as a count of units in the complex or per binding partner.

The target of this test is NADPH-dependent imine reductase from Ajellomyces dermatitidis (Ajellomyces dermatitidis). Nature of the test: crystal structure; three crystal forms, sitting drop, 298 K, protein at 40 mg/ml in 50 mM Tris-HCl pH 7.5, 300 mM NaCl; data set 1 P3(1)21 with NADPH4 (one dimer in the asymmetric unit), data set 2 C2(1) with NADP+ (nine molecules, four and a half dimers), data set 3 P3(1)21 with NADP+ and 2,2-difluoroacetophenone (half-dimer, partner by crystal symmetry).

Substance “NADPH-dependent imine reductase from Ajellomyces dermatitidis (enzyme)” gave a stoichiometry N of 2.
